Numbering of substitutions follows the chain as printed.
B1: ADI-41552 (antibody, V domains shown)
VH: EVQLLESGGGLVQPGGSLRLSCAASGFTFSPYSMNWVRQAPGKGLEWVSYISRSGSFKYYADSVKGRFTISRDDAKNSLYLHMNSLRDDDTAVYYCVSYCSSATCHQRFDYWGQGTLVTVSS
VL: EIVLTQSPATLSLSPGERATLSCRASQSVNSYLAWYQQKPGQAPRLLIYDASNRATGIPARFSGSGSGTDFTLTISSLEPEDFAVYYCQERNSWPKLTFGGGTKVEIK
B2: ADI-41554 (antibody, V domains shown)
VH: EVQLVESGGGLVQPGGSLRLSCAASGFTFSSYPMNWVRQGPGKGLEWVSSISSSGASPYYADSVKGRFTISRDNSKNTLYLQMNSLRADDTAVYYCAREDYYYYYMDVWGKGTTVTVSS
VL: ETTLTQSPSTLSASVGDRVTITCRASESISSWLAWYQQKPGKAPKLLIFKASTVQSGVPSRFSGSGSGTEFTLTISSLQPDDFATYYCQQYNSYLLTFGGGTKVEIK
notes: also called Ab 836; Antibody Number 836
B3: ADI-41555 (antibody, V domains shown)
VH: EVQLVESGPGLVKPSQTLSLTCSVSGGSISSGIHYWSWIRQHPGKGLEWIGYIYYSGSTYYNPSLESRITISVDTSKNQFSLKVSSVTAADTAVYYCARVNRASRMTTFGVANERSIYYFMDVWGKGTTVTVSS
VL: ETTLTQSPATLSLSPGERATLSCRATQSVGNYLAWYQQKPGQAPRLLIHDASNRATGIPARFSGSGSGTDFTLTISSLEPEDFAVYYCQLRINWLFTFGPGTKVEIK
B4: ADI-41557 (antibody, V domains shown)
VH: EVQLLESGPGLVKPSETLSLTCNVSGGSISSYYWSWIRQSPGKGLEWIGHIYDTGYTNYNPSLKSRVTMSVDTSKNRFSLKLDSVTAADTAVYYCARGRGWRNLYNWFDPWGQGTLVTVSS
VL: DIVMTQSPATLSVSPGERATLSCRTSQSFSSMLAWYQQKPGQAPRLLIYGASTRATGIPARFSGSGSATEFTLTISNLQSEDVAVYYCQQYNSWPLTFGGGTKVEIK
notes: also called Ab 839; Antibody Number 839
B5: ADI-41558 (antibody, V domains shown)
VH: EVQLLESGGGLVKPGGSLRLSCEVSGFPFSDYYVSWIRQAPGKGLEWLSYSSRGGIYTNYADSVKGRFTISRDNDKNSLFLQMNSLRAEDTAVYYCARDRSDIWSGRVGFDYWGQGTLVTVSS
VL: DIVMTQSPATLSLSPGERATLSCRASQSVSSSYLAWYQQKPGQAPRLLIYGASSRATGIPDRFSGSGSGTDFTLTISRLEPEDFAVYYCQQYNKSPPGYIFGPGTKVDIK
notes: also called Ab 840; Antibody Number 840
B6: ADI-41561 (antibody, V domains shown)
VH: QVQLVQSGPTLVKPTQTLTLTCSFSGFSLTNTGVGVGWIRQPPGKALEWLALIYWDDDKRYRPSLKSRLTITKDTSKSQVVLTMTNMDPLDTATYYCAHRRSAYDPIYFDYWGQGALVTVSS
VL: DIRVTQSPSSVSASVGDRVTITCRASRSINNWLAWYQQKPGKAPKLLIYAASSLQSGVPSRFSGSGYGTDFTLTISSLQPEDFATYYCQQAHSFPSITFGQGTRLEIK
B7: ADI-41564 (antibody, V domains shown)
VH: QVQLVQSGAEVKKPGSSVKVSCKAFGGTLRRYALSWVRQAPGQGLEWMGGIIPVFGTRRYAQKFQGRITITADGSTSTASMEVSSLRFEDTAIYYCATVYFDFVSGPPPTYYYYYMDVWGKGTTVTVSS
VL: B5 VL with A9G, N93D, K94S, P96L, P97R, G98V, Y99L, I100T, P103G
notes: also called Ab 844; Antibody Number 844
B8: ADI-41569 (antibody, V domains shown)
VH: EVQLLESGAEVKKPGSSVKVSCKASGGTFSTYAISWVRQAPGQGLEWMGGIIPVLGTTKYAQKFQDRVTITADESTSTAYMDLSGLRSDDTAVYYCARGVWGDCGRASCLFDWYFDLWGRGTLVTVSS
VL: EIVMTQSPATLSVSPGERVTLSCSASQTVSSNLAWYQQKPGQAPRLLIYGASIRATDIPARFSGSGSRTEFTLTISSLQSEDFAVYYCQQYNNRPPLTFGGGTKVEIK
notes: also called Ab 847; Antibody Number 847
B9: ADI-41570 (antibody, V domains shown)
VH: QVQLVQSGAEVKKPGSSVKVSCMASGGTFSNSAINWVRQAPGQGLEWMGGTIPIFGAANYAQRFQARVTITADKSTSTAYMELTSLRSDDTAVYYCVRTPHRSSDHIWGSYRYFDSWGQGTLVTVSS
VL: QSVVTQEPSVSAAPGQKITISCSGSTSNIGINYVSWYQQFPGTAPKLLIYDNDKRPSGIPDRFSGSKSGTSATLGITGLQAGDEADYYCGTWDSSLSAGHIFGGGTKVTVL
notes: also called Ab 848; Antibody Number 848
B10: ADI-41579 (antibody, V domains shown)
VH: QVQLVESGAEARKPGSSVKVSCKLSGGTFSTDPISWVRQAPGQGLEWMGRIIPLLGIANYAQKFQGRVTIIADKSTSTVYMELRNLRFEDTAVYFCARRGDGYYGMDVWGQGTTVTVSS
VL: QSVLTQPASVSGSPGQSITISCTGTSNDIGGYDYVSWYQQHPGKAPKLMIYDVHNRPSGVSNRFSGSKSGNTASLTISGLQAEDEADYYCSSFSDSGNLYVFGTGTKLTVL
B11: ADI-41580 (antibody, V domains shown)
VH: QVQLQQWGAGLLKPSETLSLTCAVYGGSFSGYYWSWIRQPPGKGLEWIGEMNHSGGSNYNPSFKSRVTISVDTSKKYFSLNLSSVTAADTAIYYCARTPFYYESTGYYYYYYGMDVWGQGTTVTVSS
VL: DIVMTQTPDSLAVSLGERATINCKSSQSVSHSSNNKNYLSWYQQKPGQPPKLLIYWASIRESEAPDRFTGSGSGTDFTLTISSLQAEDVAVYYCQQYYTAPITFGQGTRLEIK
notes: also called Ab 854; Antibody Number 854
B12: ADI-41581 (antibody, V domains shown)
VH: EVQLLESGSELKKPGASVKISCKTSGYTFTNYLMNWVRQAPGQGLEWMGWINTHTGNPTYAQDFTGRFVFSLDTSVNTAYLQISSLKAEDTAIYYCARDGLEAFSGYNGVDYWGQGTLVTVSS
VL: DIVMTQTPLSLPVTPGEPASISCRSSPSLLHSNGYNYLDWYLQKPGQSPQLLIYLGSTRASGVPDRFSGSGSGTDFTLRISRVEAEDVGVYYCMQALQIPLTFGQGTKLEIK
notes: also called Ab 855; Antibody Number 855
B13: ADI-41583 (antibody, V domains shown)
VH: QVQLVQSGAEVKKPGSSVKVSCKASGGTFSRHTITWVRQAPGQGLEWMGRIAPIVGFANYAQKFQGRVTITADKSTSTAYMELRSLRSEDTAVYYCARRSEDYYGLDVWGQGTTVTVSS
VL: DIVMTQSPSSLSASVGDRVTITCQASQDISNYLNWYQQKPGKAPKLLIYEASNLETGVPSRFSGSGSGTDFTFTISSLQPEDIATYYCQQYDNLFGGGTKLEIK
B14: ADI-41586 (antibody, V domains shown)
VH: QVQLQQWGAGLLKPSETLSLTCAVYGGSFSGYSWSWIRQPPGKGLEWIGDIDHDGSTYYNSSLKSRVTMSIDTSKNQFSLKLSSVTAADTAVYYCARVGGNSGYWGQGTLVTVSS
VL: not shown
notes: also called Ab 860; Antibody Number 860
B15: ADI-41587 (antibody, V domains shown)
VH: QVQLVQSGAGLLKPSETLSLTCAVYGGSFSGYSWSWIRQPPGKGLEWIGEINYSVSTSYNSSLKSRVSISVDTSKNQFSLKLTSVTAADTAVYYCARVGGAVADWGQGTLVTVSS
VL: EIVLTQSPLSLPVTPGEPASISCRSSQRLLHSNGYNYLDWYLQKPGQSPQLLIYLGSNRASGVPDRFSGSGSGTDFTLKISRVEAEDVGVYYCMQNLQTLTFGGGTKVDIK
B16: ADI-41588 (antibody, V domains shown)
VH: QVQLVESGPTLVKPTQTLTLTCTFSGFSLSTNGVGVAWIRQPPGKALEWLAIIYWDDDKRYSPSLKSRLTITKDTSKNQVVLTVTDMDPVDTATYYCAHTIGVPAATRFDYWGQGTLVTVSS
VL: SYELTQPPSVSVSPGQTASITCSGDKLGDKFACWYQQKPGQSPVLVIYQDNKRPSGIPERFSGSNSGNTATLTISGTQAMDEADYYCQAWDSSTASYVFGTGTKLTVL
B17: ADI-41592 (antibody, V domains shown)
VH: EVQLVESGSELKKPGASVKVSCKASGYTFRTYVMNWVRQAPGQGLEWMGWINTNTGNPTYAQGFTGRFVFSLDTSVSTAYLQISSLKAEDTAVYYCARESIDDYDSSGYGRTFDYWGQGTLVTVSS
VL: SYELTQPPSVSVSPGQTASIPCSGDKVGKTYVYWYQQTPGQSPGLVIYQDTKRPSGIPERFSGSSSGNTATLTISGTQTMDEADYYCQAWDTSTASYVFGTGTKLTVL
notes: also called Ab 866; Antibody Number 866
B18: ADI-41593 (antibody, V domains shown)
VH: QVQLVQSGVEVKKPGESLKISCKGSGYSFTNYWIAWVRQMPGKGLEWMGIIYPGDSDTRYSPSFQGQVTISADKSISTAYVQWSSLKASDTAIYYCARGDILTNSGPDAFDIWGQGTMVTVSS
VL: DIQMTQSPSSFSASTGDRVTITCRASQAISSYLAWFQQKPGKAPKLLIYAASTLQSGVPSRFSGSGSGTDFTLTISCLQSEDFATYYCQQYYSYPLTFGGGTKVEIK
notes: also called Ab 867; Antibody Number 867
B19: ADI-41596 (antibody, V domains shown)
VH: QVQLQQWGAGLLKPSETLSLTCAVYGDSFSGYFWTWIRQPPGKGLEWIGEINLSGSTNYNPSLKSRVTILVDTSKNQFSLKLSSVTAADTAVYYCARGLHVSDDQDSSGYYFHPGSFDYWGQGTLVTVSS
VL: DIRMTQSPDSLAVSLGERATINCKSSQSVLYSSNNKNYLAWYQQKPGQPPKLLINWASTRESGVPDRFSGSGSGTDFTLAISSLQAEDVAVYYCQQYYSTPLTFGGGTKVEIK
notes: also called Ab 870; Antibody Number 870
B20: ADI-41600 (antibody, V domains shown)
VH: EVQLLESGGNMVQPGKSLRLSCAASGFTFSNYGMHWVRQAPGKGLEWVAVISKDGNNEHYADSVRARFTVSRDNSKNTLFLQMNSLRPEDTAVYYCAIGGLSGSYFGEYFQHWGRGTLVTVSS
VL: DIQMTQSPSSMSASLGDRVTITCRASQGISTWLAWYQQKPGEAPKLLIYAAFGLQSGVPSRFSGSGSGTDFTLTINNLQPEDFATYYCQQAISFPFTFGGGTKVEIK
notes: also called Ab 874; Antibody Number 874

target: RSV F on RSV-A2 virus (Respiratory syncytial virus, RSV-A2, UniProt P03420 26-574); test: cell-based or functional assay

| Binder | Neutralization IC50 (RSV subtype A) [µg/mL] |
| --- | --- |
| B1 | > 25 |
| B2 | > 25 |
| B3 | 25 |
| B4 | > 25 |
| B5 | > 25 |
| B6 | > 25 |
| B7 | > 25 |
| B8 | > 25 |
| B9 | 25 |
| B10 | 0.209 |
| B11 | 1.11 |
| B12 | > 25 |
| B13 | > 25 |
| B14 | 0.402 |
| B15 | 0.664 |
| B16 | > 25 |
| B17 | > 25 |
| B18 | > 25 |
| B19 | 0.0537 |
| B20 | > 25 |

target: RSV prefusion F (preF), DS-Cav1 (Respiratory syncytial virus, UniProt P03420 26-513); test: BLI, IgG on anti-human IgG sensor, 100 nM antigen

| Binder | Kd [nM] |
| --- | --- |
| B1 | 3.44 |
| B2 | 1.35 |
| B3 | 5.69 |
| B4 | 30.9 |
| B5 | 3.02 |
| B6 | 3.33 |
| B7 | 4.44 |
| B8 | 3.3 |
| B9 | 2.97 |
| B10 | 0.471 |
| B11 | 2.98 |
| B12 | 2.77 |
| B13 | 0.664 |
| B14 | 0.538 |
| B15 | 1.4 |
| B16 | 3.33 |
| B17 | 3.74 |
| B18 | 1.83 |
| B19 | 0.305 |
| B20 | 4.93 |

target: RSV postfusion F (postF), F ΔFP (Respiratory syncytial virus, UniProt P03420 26-513); test: BLI, IgG on anti-human IgG sensor, 100 nM antigen

| Binder | Kd [nM] |
| --- | --- |
| B1 | 0.522 |
| B2 | 1.07 |
| B3 | 1.12 |
| B4 | 86.1 |
| B5 | 0.7 |
| B6 | 0.516 |
| B7 | 0.596 |
| B8 | 1.61 |
| B9 | 1.12 |
| B10 | 0.36 |
| B11 | 1.17 |
| B12 | 0.361 |
| B13 | 0.381 |
| B14 | 0.779 |
| B15 | 2.09 |
| B16 | 0.505 |
| B17 | 0.44 |
| B18 | 0.53 |
| B19 | 0.437 |
| B20 | 0.755 |
